Assay in all cases: cell-based or functional assay
The target in assay [1] is T1, human GIP receptor (human, UniProt P48546 22-466).
T1 sequence (looked up): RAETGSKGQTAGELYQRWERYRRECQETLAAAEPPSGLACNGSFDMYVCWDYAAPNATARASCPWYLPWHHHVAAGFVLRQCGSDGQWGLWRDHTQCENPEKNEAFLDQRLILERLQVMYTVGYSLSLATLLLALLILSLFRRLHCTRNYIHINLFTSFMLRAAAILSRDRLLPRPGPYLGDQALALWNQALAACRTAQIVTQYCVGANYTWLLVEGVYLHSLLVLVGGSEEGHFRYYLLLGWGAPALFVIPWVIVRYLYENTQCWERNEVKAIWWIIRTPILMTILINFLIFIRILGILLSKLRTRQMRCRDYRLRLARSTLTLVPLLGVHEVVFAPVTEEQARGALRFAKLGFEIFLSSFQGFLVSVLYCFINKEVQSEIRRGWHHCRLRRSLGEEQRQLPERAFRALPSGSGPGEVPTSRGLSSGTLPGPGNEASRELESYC

The target in assay [2] is human glucagon receptor (human, UniProt P47871 26-477).
Assay [3] deals with human GLP-1 receptor (human, UniProt P43220 24-463).
Assay [4] addresses human glucagon receptor (human) (UniProt P47871).
Assay [5] deals with T2, human GIP receptor (human) (UniProt P48546).
T2 sequence (looked up): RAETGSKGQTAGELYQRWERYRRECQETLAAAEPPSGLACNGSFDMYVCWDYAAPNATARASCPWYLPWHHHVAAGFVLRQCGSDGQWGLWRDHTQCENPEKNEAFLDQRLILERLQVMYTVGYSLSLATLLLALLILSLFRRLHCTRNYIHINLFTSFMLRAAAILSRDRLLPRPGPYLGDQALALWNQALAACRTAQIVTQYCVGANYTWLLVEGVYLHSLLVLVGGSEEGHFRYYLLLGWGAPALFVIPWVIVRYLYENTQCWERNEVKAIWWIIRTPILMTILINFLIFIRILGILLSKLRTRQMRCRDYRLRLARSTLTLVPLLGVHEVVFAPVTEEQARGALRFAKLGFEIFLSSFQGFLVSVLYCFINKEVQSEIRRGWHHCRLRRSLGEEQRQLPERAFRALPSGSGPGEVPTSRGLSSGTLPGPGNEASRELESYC

A further assay has as its target hGLP-1R (Homo sapiens, UniProt P43220).
Assay [6] concerns the target human GLP-1 receptor (human, UniProt P43220 24-463). This is another data set of the same source.
The target of assay [7] is human glucagon receptor (human, UniProt P47871 26-477). This is another data set of the same source.
Target sequence in this assay (P47871 26-477): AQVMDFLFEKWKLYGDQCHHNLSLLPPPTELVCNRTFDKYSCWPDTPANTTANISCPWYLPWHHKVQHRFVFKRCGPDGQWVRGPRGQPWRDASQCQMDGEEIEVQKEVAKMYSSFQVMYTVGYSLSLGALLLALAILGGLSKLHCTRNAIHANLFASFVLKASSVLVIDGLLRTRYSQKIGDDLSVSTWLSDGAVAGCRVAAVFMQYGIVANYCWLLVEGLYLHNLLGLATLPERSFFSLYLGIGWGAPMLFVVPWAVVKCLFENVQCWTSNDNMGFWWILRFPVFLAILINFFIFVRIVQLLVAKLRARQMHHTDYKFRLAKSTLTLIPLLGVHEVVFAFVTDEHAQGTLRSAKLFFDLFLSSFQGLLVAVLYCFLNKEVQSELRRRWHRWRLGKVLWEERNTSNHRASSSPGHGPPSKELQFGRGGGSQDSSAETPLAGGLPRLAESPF
Assay [8] concerns the target T3, human GIP receptor (human, UniProt P48546 22-466).
T3 sequence (looked up): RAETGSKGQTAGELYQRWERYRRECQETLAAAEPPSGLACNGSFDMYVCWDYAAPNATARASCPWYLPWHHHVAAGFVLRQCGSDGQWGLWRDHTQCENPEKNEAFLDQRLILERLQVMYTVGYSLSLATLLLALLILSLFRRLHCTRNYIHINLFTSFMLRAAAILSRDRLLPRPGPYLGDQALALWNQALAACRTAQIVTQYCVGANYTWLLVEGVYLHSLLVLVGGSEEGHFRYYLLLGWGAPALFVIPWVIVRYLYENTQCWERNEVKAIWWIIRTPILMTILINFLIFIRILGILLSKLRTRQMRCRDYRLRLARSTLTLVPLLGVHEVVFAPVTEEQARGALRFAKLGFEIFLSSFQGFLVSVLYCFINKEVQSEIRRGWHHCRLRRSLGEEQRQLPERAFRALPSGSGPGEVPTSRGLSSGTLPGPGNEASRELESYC
The source holds these as a separate data set.

A value given as a limit tells only on which side of the number the result lay.

B1: Example 331 (peptide)
peptide: YXEGTXTSDXXIXLDXIAQXKFIXXLIKGGPSSGAPPPS
modifications: Y-Aib-EGT-αMeF(2F)-TSD-4Pal-Aib-I-αMeL-LD-Orn-IAQ-Aib-K(2-[2-(2-Amino-ethoxy)-ethoxy]-acetyl)2-(γ-Glu)-(11-(4-carboxyphenoxy)undecanoyl)FI-(D-Glu)-αMeY-LIK((2-[2-(2-Amino-ethoxy)-ethoxy]-acetyl)2-(γ-Glu)-(11-(4-carboxyphenoxy)undecanoyl)GGPSSGAPPPS-NH2)
In the case of B1, the “cAMP EC50 (1.0% HSA)” value with human GIP receptor [1] was 8.31 nM; in the assay with human glucagon receptor [2] it was over 9950 nM; with human GLP-1 receptor [3] it was 223 nM. Besides, the “cAMP Emax (1.0% HSA)” value in the assay with human GLP-1 receptor [3] came out at 114%. Besides, the cAMP EC50 in [4] was over 9950 nM; in [5], 0.0113 nM; in the assay with hGLP-1R it was 0.436 nM. Besides, the cAMP Emax in assay [5] is 101%; in the assay with hGLP-1R, 99.6%.

B2: Example 354 (peptide)
peptide: YXEGTXTSDXXIXLDXIAQXXFIKXLIKGGPSSGAPPPS
modifications: Y-Aib-EGT-αMeF(2F)-TSD-4Pal-Aib-I-αMeL-LD-Orn-IAQ-Aib-Orn-FIK((2-[2-(2-Amino-ethoxy)-ethoxy]-acetyl)2-(γ-Glu)-(10-(4-carboxyphenoxy)decanoyl))-αMeY-LIK((2-[2-(2-Amino-ethoxy)-ethoxy]-acetyl)2-(γ-Glu)-(10-(4-carboxyphenoxy)decanoyl))GGPSSGAPPPS-NH2
On to B2, for which the “cAMP EC50 (1.0% HSA)” value with human GLP-1 receptor [6] was 7.25 nM; in the assay with human glucagon receptor [7], over 9950 nM; with human GIP receptor [8] it was 0.857 nM. The “cAMP Emax (1.0% HSA)” value is 95.9% in the assay with human GLP-1 receptor [6] and 67.5% in the assay with human GIP receptor [8].

B3: Example 352 (peptide)
peptide: YXEGTXTSDYXIXLDXKAQXXFIXXLIKGGPSSGAPPPS
modifications: Y-Aib-EGT-αMeF(2F)-TSDY-Aib-I-αMeL-LD-Orn-K((2-[2-(2-Amino-ethoxy)-ethoxy]-acetyl)2-(γ-Glu)-(10-(4-carboxyphenoxy)decanoyl))AQ-Aib-Om-FI-(D-Glu)-αMeY-LIK((2-[2-(2-Amino-ethoxy)-ethoxy]-acetyl)2-(γ-Glu)-(10-(4-carboxyphenoxy)decanoyl))GGPSSGAPPPS-NH2
B3: the “cAMP EC50 (1.0% HSA)” value in the assay with human GIP receptor [1] is 0.277 nM; with human glucagon receptor [2], over 9950 nM; with human GLP-1 receptor [3] it was 5.46 nM. The entries for the “cAMP Emax (1.0% HSA)” value in the assay with human GIP receptor [1] and with human GLP-1 receptor [3] were 71.3% and 93.5%, respectively. Moreover, the figures for the cAMP EC50 (in [4]; in [5]; in the assay with hGLP-1R) were over 9950 nM, 0.0106 nM and 0.262 nM, respectively. In addition, the cAMP Emax worked out at 98.3% in assay [5] and 99.5% with hGLP-1R.

B4: Example 355 (peptide)
peptide: YXEGTXTSDYXIXLDXIAQXXFIKXLIKGGPSSGAPPPS
modifications: Y-Aib-EGT-αMeF(2F)-TSDY-Aib-I-αMeL-LD-Orn-IAQ-Aib-Orn-FIK((2-[2-(2-Amino-ethoxy)-ethoxy]-acetyl)2-(γ-Glu)-(10-(4-carboxyphenoxy)decanoyl))-αMeY-LIK((2-[2-(2-Amino-ethoxy)-ethoxy]-acetyl)2-(γ-Glu)-(10-(4-carboxyphenoxy)decanoyl))GGPSSGAPPPS-NH2
Turning to B4, the “cAMP EC50 (1.0% HSA)” value with human GLP-1 receptor [6] was 11.3 nM; with human glucagon receptor [7] it was over 9950 nM; with human GIP receptor [8], 1.81 nM. Moreover, in the assay with human GLP-1 receptor [6], the “cAMP Emax (1.0% HSA)” value is 109%.

B5: Example 351 (peptide)
peptide: YXEGTXTSDXXIXLDXKAQXXFIXXLIKGGPSSGAPPPS
modifications: Y-Aib-EGT-αMeF(2F)-TSD-4Pal-Aib-I-αMeL-LD-Orn-K((2-[2-(2-Amino-ethoxy)-ethoxy]-acetyl)2-(α-Glu)-(10-(4-carboxyphenoxy)decanoyl))AQ-Aib-Om-FI-(D-Glu)-αMeY-LIK((2-[2-(2-Amino-ethoxy)-ethoxy]-acetyl)2-(γ-Glu)-(10-(4-carboxyphenoxy)decanoyl))GGPSSGAPPPS-NH2
With B5, the “cAMP EC50 (1.0% HSA)” value in the assay with human GIP receptor [1] is 0.722 nM; with human glucagon receptor [2] it was over 9950 nM; in the assay with human GLP-1 receptor [3], 5.8 nM. Moreover, the “cAMP Emax (1.0% HSA)” value was 67.9% in the assay with human GIP receptor [1] and 91% with human GLP-1 receptor [3]. Moreover, the results for the cAMP EC50 (in assay [4]; in assay [5]; with hGLP-1R) were over 9950 nM, 0.0185 nM and 0.397 nM, respectively. The cAMP Emax was found to be 102% in [5] and 100% in the assay with hGLP-1R.

B6: Example 340 (peptide)
peptide: YXEGTXTSDXXIXLDXIAQXKFIXXLIKGGPSSGAPPPS
modifications: Y-Aib-EGT-αMeF(2F)-TSD-4Pal-Aib-I-αMeL-LD-Orn-IAQ-Aib-K((2-[2-(2-Amino-ethoxy)-ethoxy]-acetyl)-(γ-Glu)-CO-(CH2)12-CO2H)FI-(D-Glu)-αMeY-LIK((2-[2-(2-Amino-ethoxy)-ethoxy]-acetyl)-(γ-Glu)-CO-(CH2)12-CO2H)GGPSSGAPPPS-NH2
For B6, the figures for the “cAMP EC50 (1.0% HSA)” value with human GIP receptor [1], with human glucagon receptor [2] and with human GLP-1 receptor [3] were 9.91 nM, over 9950 nM and 122 nM, respectively. Further, the “cAMP Emax (1.0% HSA)” value worked out at 87.9% with human GIP receptor [1] and 112% with human GLP-1 receptor [3]. Also, the cAMP EC50 in assay [4] was over 9950 nM; in assay [5], 0.0206 nM; in the assay with hGLP-1R it was 0.409 nM. Moreover, the cAMP Emax in assay [5] amounted to 95.2%; with hGLP-1R, 105%.

B7: Example 336 (peptide)
peptide: YXEGTXTSDXXIXLDXKAQXKFIXXLIEGGPSSGAPPPS
modifications: Y-Aib-EGT-αMeF(2F)-TSD-4Pal-Aib-I-αMeL-LD-Orn-K((2-[2-(2-Amino-ethoxy)-ethoxy]-acetyl)-(γ-Glu)-CO-(CH2)12-CO2H)AQ-Aib-K((2-[2-(2-Amino-ethoxy)-ethoxy]-acetyl)-(γ-Glu)-CO-(CH2)12-CO2H)FI-(D-Glu)-αMeY-LIEGGPSSGAPPPS-NH2
Take B7: the “cAMP EC50 (1.0% HSA)” value in the assay with human GIP receptor [1] was 2.92 nM; with human glucagon receptor [2], over 10100 nM; with human GLP-1 receptor [3] it was 47 nM. Besides, the “cAMP Emax (1.0% HSA)” value with human GLP-1 receptor [3] was 103%. Further, the cAMP EC50 in assay [4] was over 10100 nM; in assay [5] it was 0.0136 nM; with hGLP-1R, 0.338 nM. Besides, the cAMP Emax is 109% in assay [5] and 107% in the assay with hGLP-1R.

For the origin of these results see US20230265151A1, “GIP/GLP1 CO-AGONIST COMPOUNDS” (priority 2020, published 2023).
